# Key:
# [1] = target: ShAb02 (shark VNAR - human IgG1 Fc chimera) (nurse shark (Ginglymostoma cirratum)); assay: BLI; details: both partners purified
# [2] = target: ShAb01 (shark VNAR - human IgG1 Fc chimera) (nurse shark (Ginglymostoma cirratum)); assay: BLI; details: both partners purified
binder,measurement,setting,value
SARS-CoV-1 RBD (domain or fragment) not shown,binding result,[1],no binding
same,binding result,[2],binds

# — paper PMC9896449 (Nature Communications, 2023)
